# Results: patent US20080166762A1
# Biological target: IL-1 receptors on MCF-7 cells
# Experiment: cell-based or functional assay
Substance,proliferation of MCF-7 cells (BrdU) in the presence of 50 ng IL-1beta [ng],inhibition of proliferation of MCF-7 cells (BrdU) [ng]
"Interleukin 1 receptor antagonist (IL-1Ra) secreted by Pichia pastoris x-33/pGAPZαA/IL-1Ra clone 7, partially purified (from UniProt P18510 26-177) (ligand)",40,
Recombinant human IL-1beta (from UniProt P01584 117-269) (ligand),,50
recombinant IL-1Ra standard from E. coli (Prospectany) (from UniProt P18510 26-177) (ligand),20,
